Tested on: Escherichia coli TOP10
Assay: shrunken log2 fold change of peptide-encoding DNA abundance (4.5 h post-induction vs induction); higher = less antimicrobial activity (less host growth inhibition)
Details: time post-induction: 4.5 h; library: site-saturation at positions 5, 18, 19, 20
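Note: peptides expressed intracellularly from a pBAD plasmid library in pooled LB shake-flask culture, induced with 0.3% L-arabinose, DNA abundance read by NGS, three biological replicates, DESeq2 with apeglm shrinkage.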

| Sequence | shrunken log2 fold change |
| --- | --- |
| RRIRQRPPRLPRPRPRPCIKPRP | 0.155 |
| RRIRMRPPRLPRPRPRPARNPRP | -0.0385 |
| RRIRIRPPRLPRPRPRPGYWPRP | -0.0497 |
| RRIRLRPPRLPRPRPRPQHMPRP | -0.767 |
| RRIRRRPPRLPRPRPRPNWAPRP | 0.164 |
| RRIRERPPRLPRPRPRPEENPRP | 0.127 |
| RRIRKRPPRLPRPRPRPGAWPRP | 0.364 |
| RRIRGRPPRLPRPRPRPVIGPRP | 0.388 |
| RRIRKRPPRLPRPRPRPRHIPRP | -0.0145 |
| RRIRMRPPRLPRPRPRPWWNPRP | 0.045 |
| RRIRRRPPRLPRPRPRPPELPRP | -0.0467 |
| RRIRNRPPRLPRPRPRPQVQPRP | -0.524 |
| RRIRHRPPRLPRPRPRPSCGPRP | -0.304 |
| RRIRIRPPRLPRPRPRPLMMPRP | -1.03 |
| RRIRSRPPRLPRPRPRPTPEPRP | 0.866 |
| RRIRPRPPRLPRPRPRPWKLPRP | -0.0861 |
| RRIRARPPRLPRPRPRPEKPPRP | 0.64 |
| RRIRSRPPRLPRPRPRPCLDPRP | -0.224 |
| RRIRLRPPRLPRPRPRPNIRPRP | -0.585 |
| RRIRIRPPRLPRPRPRPSCKPRP | -0.122 |
| RRIRIRPPRLPRPRPRPVNYPRP | -0.0508 |
| RRIRVRPPRLPRPRPRPFNTPRP | 2.64 |

| Sequence | shrunken log2 fold change |
| --- | --- |
| RRIRTRPPRLPRPRPRPCSHPRP | 0.13 |
| RRIRPRPPRLPRPRPRPYACPRP | -0.921 |
| RRIRVRPPRLPRPRPRPWMLPRP | -0.2 |
| RRIRKRPPRLPRPRPRPEEGPRP | 0.0325 |
| RRIRKRPPRLPRPRPRPPIYPRP | 0.0758 |
| RRIRIRPPRLPRPRPRPSLMPRP | -0.246 |
| RRIRPRPPRLPRPRPRPMLCPRP | 0.122 |
| RRIRMRPPRLPRPRPRPIFYPRP | -0.106 |
| RRIRYRPPRLPRPRPRPCEDPRP | -0.371 |
| RRIRIRPPRLPRPRPRPRSDPRP | -0.284 |
| RRIRGRPPRLPRPRPRPDAIPRP | 1.38 |
| RRIRWRPPRLPRPRPRPHYTPRP | -0.638 |
| RRIRWRPPRLPRPRPRPSQLPRP | -0.375 |
| RRIRERPPRLPRPRPRPFMDPRP | -0.243 |
| RRIRHRPPRLPRPRPRPIAHPRP | 0.0481 |
| RRIRVRPPRLPRPRPRPIACPRP | 0.0889 |
| RRIRGRPPRLPRPRPRPCSMPRP | -0.0323 |
| RRIRQRPPRLPRPRPRPSWEPRP | -0.141 |
| RRIRERPPRLPRPRPRPVWHPRP | -0.154 |
| RRIRIRPPRLPRPRPRPRSMPRP | -0.695 |
| RRIRYRPPRLPRPRPRPHFEPRP | -0.115 |
| RRIRMRPPRLPRPRPRPNERPRP | 0.69 |

| Sequence | shrunken log2 fold change |
| --- | --- |
| RRIRSRPPRLPRPRPRPEKIPRP | -0.0469 |
| RRIRDRPPRLPRPRPRPYFEPRP | -0.3 |
| RRIRCRPPRLPRPRPRPNPYPRP | -0.44 |
| RRIRHRPPRLPRPRPRPIHDPRP | -1.81 |
| RRIRIRPPRLPRPRPRPYDCPRP | 0.0019 |
| RRIRCRPPRLPRPRPRPCETPRP | 0.0192 |
| RRIRNRPPRLPRPRPRPVDQPRP | -0.213 |
| RRIRERPPRLPRPRPRPMSTPRP | -0.516 |
| RRIRTRPPRLPRPRPRPIVHPRP | -0.0385 |
| RRIRGRPPRLPRPRPRPLNSPRP | 0.181 |
| RRIRCRPPRLPRPRPRPWPAPRP | 0.375 |
| RRIRSRPPRLPRPRPRPYDVPRP | 0.0192 |
| RRIRRRPPRLPRPRPRPKWFPRP | -0.0159 |
| RRIRPRPPRLPRPRPRPKTFPRP | -0.322 |
| RRIRYRPPRLPRPRPRPWMWPRP | 0.0261 |
| RRIRHRPPRLPRPRPRPRLEPRP | 0.0466 |
| RRIRCRPPRLPRPRPRPQWTPRP | -0.205 |
| RRIRYRPPRLPRPRPRPWHRPRP | -0.172 |
| RRIRKRPPRLPRPRPRPGNHPRP | 0.0875 |
| RRIRTRPPRLPRPRPRPHAAPRP | 0.0465 |
| RRIRPRPPRLPRPRPRPSIDPRP | -0.598 |
| RRIRSRPPRLPRPRPRPPFTPRP | -0.00795 |

| Sequence | shrunken log2 fold change |
| --- | --- |
| RRIRWRPPRLPRPRPRPYHSPRP | -0.215 |
| RRIRQRPPRLPRPRPRPPPDPRP | 0.701 |
| RRIRERPPRLPRPRPRPFLKPRP | -0.0233 |
| RRIRDRPPRLPRPRPRPAIRPRP | 0.53 |
| RRIRPRPPRLPRPRPRPAYFPRP | -0.16 |
| RRIRMRPPRLPRPRPRPPNVPRP | 0.301 |
| RRIRPRPPRLPRPRPRPYHQPRP | 0.0122 |
| RRIRQRPPRLPRPRPRPANEPRP | -0.104 |
| RRIRPRPPRLPRPRPRPIGCPRP | -0.0888 |
| RRIRPRPPRLPRPRPRPFNLPRP | -0.771 |
| RRIRTRPPRLPRPRPRPNFAPRP | 0.00158 |
| RRIRERPPRLPRPRPRPSPVPRP | -0.268 |
| RRIRKRPPRLPRPRPRPRYGPRP | -0.238 |
| RRIRSRPPRLPRPRPRPHVDPRP | -0.0165 |
| RRIRWRPPRLPRPRPRPTNNPRP | 0.0375 |
| RRIRNRPPRLPRPRPRPNRWPRP | 0.105 |
| RRIRLRPPRLPRPRPRPESMPRP | 0.191 |
| RRIRSRPPRLPRPRPRPASLPRP | -0.0507 |
| RRIRKRPPRLPRPRPRPTQHPRP | 0.748 |
| RRIRWRPPRLPRPRPRPSMYPRP | -0.326 |
| RRIRGRPPRLPRPRPRPIHMPRP | -0.0548 |
| RRIRARPPRLPRPRPRPYMAPRP | -0.702 |

| Sequence | shrunken log2 fold change |
| --- | --- |
| RRIRQRPPRLPRPRPRPYLHPRP | -0.117 |
| RRIRSRPPRLPRPRPRPFKGPRP | 0.112 |
| RRIRARPPRLPRPRPRPNLMPRP | -0.0139 |
| RRIRPRPPRLPRPRPRPMLVPRP | 0.0962 |
| RRIRYRPPRLPRPRPRPYNNPRP | -1.43 |
| RRIRFRPPRLPRPRPRPWIYPRP | -0.662 |
| RRIRHRPPRLPRPRPRPFPIPRP | 0.0165 |
| RRIRYRPPRLPRPRPRPTFIPRP | -0.0922 |
| RRIRRRPPRLPRPRPRPPCKPRP | 0.492 |
| RRIRPRPPRLPRPRPRPAKDPRP | -0.111 |
| RRIRFRPPRLPRPRPRPWIDPRP | -0.0232 |
| RRIRWRPPRLPRPRPRPCTWPRP | -0.217 |
| RRIRLRPPRLPRPRPRPMQSPRP | 0.0626 |
| RRIRVRPPRLPRPRPRPRDNPRP | -0.109 |
| RRIRVRPPRLPRPRPRPYNPPRP | -0.492 |
| RRIRSRPPRLPRPRPRPQSAPRP | 0.108 |
| RRIRNRPPRLPRPRPRPMMCPRP | -0.0344 |
| RRIRTRPPRLPRPRPRPLQHPRP | -0.257 |
| RRIRQRPPRLPRPRPRPWVEPRP | 0.0249 |
| RRIRYRPPRLPRPRPRPISNPRP | -0.191 |
| RRIRVRPPRLPRPRPRPFFNPRP | -0.32 |
